Reference: US20240109962A1 (SPARX BIOSCIENCE, published 2024)

Tests used:
[1] = biological target: T1, human LILRB2 expressed on cells (293T-LILRB2, CHO-K1-LILRB2) (human, UniProt Q8N423 22-597); assay: flow cytometry, 293T-LILRB2 cells
T1 construct: whole, on cells; the cell line is named under assay; also called HEK293T-LILRB2
Source text: The fluorescent signals were detected by flow cytometry.

[2] = biological target: T2, recombinant human LILRB2 protein (human, UniProt Q8N423 22-460, limits assumed); assay: ELISA, coated recombinant human LILRB2; design: unit not given here
T2 construct: also called recombinant LILRB2 protein
Description: This affinity maturation library was screened against human LILRB2 to identify antibodies having high binding affinity to LILRB2. Briefly, an ELISA plate was coated with 0.1 ug/well recombinant human LILRB2 protein. Serial diluted maturated h#2E1 antibodies were incubated in the LILRB2 coated plate for 2 hrs. The plate was washed and a secondary HRP-labeled anti-human IgG was then added to each well. After being incubated at room temperature for 1 hour, the colorimetric ELISA signals were developed by adding the TMB substrate and reaction was stopped by 1M H3PO4. Table 7 below provides binding activities of exemplary matured antibodies to recombinant LILRB2 protein.

[3] = biological target: T1, human LILRB2 expressed on cells …; assay: flow cytometry, blockade of His-tagged HLA-G tetramer binding to 293T-LILRB2 cells; fit table under the graph
Description: Serial diluted humanized LILRB2 antibodies were then added to the mixture and incubated at room temperature for another 45 minutes. The binding of HLA-G/LILRB2 was detected afterwards using a secondary PE-labeled anti-His tag antibody via flow cytometry.

[4] = biological target: LILRB2 antigen of the ELISA of Table 5 (format not specified) (UniProt Q8N423 22-460, limits assumed); assay: ELISA, antibody titration
Chain of LILRB2 antigen of the ELISA of Table 5 (format not specified) (Q8N423 22-460 limits assumed): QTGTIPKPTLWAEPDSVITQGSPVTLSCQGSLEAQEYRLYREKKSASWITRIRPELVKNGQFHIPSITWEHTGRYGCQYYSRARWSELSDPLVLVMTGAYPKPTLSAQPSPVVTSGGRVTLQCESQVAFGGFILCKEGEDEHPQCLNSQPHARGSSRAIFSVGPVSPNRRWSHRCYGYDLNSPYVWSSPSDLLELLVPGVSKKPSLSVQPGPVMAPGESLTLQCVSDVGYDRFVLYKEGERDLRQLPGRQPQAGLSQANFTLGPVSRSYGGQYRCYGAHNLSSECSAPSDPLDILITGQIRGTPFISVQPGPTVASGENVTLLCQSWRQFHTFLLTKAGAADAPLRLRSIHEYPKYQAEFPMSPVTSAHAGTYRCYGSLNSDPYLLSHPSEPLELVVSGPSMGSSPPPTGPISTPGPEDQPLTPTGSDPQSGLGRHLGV

T2 sequence (Q8N423 22-460 limits assumed): as above
T1 sequence (Q8N423 22-597): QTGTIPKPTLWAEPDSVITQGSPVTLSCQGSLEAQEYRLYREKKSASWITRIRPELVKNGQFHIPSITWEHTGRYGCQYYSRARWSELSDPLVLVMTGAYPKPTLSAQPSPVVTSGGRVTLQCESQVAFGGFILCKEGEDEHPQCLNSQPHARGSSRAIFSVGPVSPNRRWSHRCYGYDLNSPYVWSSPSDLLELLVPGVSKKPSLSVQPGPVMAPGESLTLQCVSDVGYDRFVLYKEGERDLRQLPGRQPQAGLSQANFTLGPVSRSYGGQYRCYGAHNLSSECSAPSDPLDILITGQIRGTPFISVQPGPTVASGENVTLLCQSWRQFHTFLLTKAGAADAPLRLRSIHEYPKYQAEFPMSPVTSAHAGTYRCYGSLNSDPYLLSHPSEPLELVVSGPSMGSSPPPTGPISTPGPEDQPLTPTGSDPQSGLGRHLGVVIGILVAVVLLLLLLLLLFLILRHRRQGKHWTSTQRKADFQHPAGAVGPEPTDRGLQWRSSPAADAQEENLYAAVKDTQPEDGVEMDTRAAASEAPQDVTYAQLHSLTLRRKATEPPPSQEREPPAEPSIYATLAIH

B1: Antibody 2E1_FE1 (antibody, V domains shown)
VH: EVQLVESGGGLVQPGGSLRLSCAVSGYSITSGYYWNWIRQAPGKGLEWVAYISYDGNMNYNPSLKNRFTISRDTSKNTFYLQMNSLRAEDTAVYYCAREESTMITTAWFAYWGQGTLVTVSS
VL: DIQMTQSPSSLSASVGDRVTITCRASENIYSNLAWYQQKPGKAPKLLIYGATNLASGVPSRFSGSGSGTDYTLTISSLQPEDFATYYCQHFWDTPYTFGQGTKVEIK
- Bmax [1]: 690000

B2: Antibody 2E1_FF3 (antibody, V domains shown)
VH: EVQLVESGGGLVQPGGSLRLSCAVSGYSITSGYYWNWIRQAPGKGLEWVAYISYDGNNSYNPSLKNRFTISRDTSKNTFYLQMNSLRAEDTAVYYCAREESTMITTAWFAYWGQGTLVTVSS
VL: DIQMTQSPSSLSASVGDRVTITCRASENIYSNLAWYQQKPGKAPKLLIYGATNLASGVPSRFSGSGSGTDYTLTISSLQPEDFATYYCQHFWDTPYTFGQGTKVEIK
- Bmax [1]: 434000
- Bmax [2]: 1.17

B3: Antibody 2E1_GA1 (antibody, V domains shown)
VH: EVQLVESGGGLVQPGGSLRLSCAVSGYSITSGYYWWWIRQAPGKGLEWVAYISYDGNNNYNPSLKNRFTISRDTSKNTFYLQMNSLRAEDTAVYYCAREESTMITTAWFAYWGQGTLVTVSS
VL: DIQMTQSPSSLSASVGDRVTITCRASENIYSNLAWYQQKPGKAPKLLIYGATNLASGVPSRFSGSGSGTDYTLTISSLQPEDFATYYCQHFWDTPYTFGQGTKVEIK
- Bmax [1]: 739000
- Bmax [2]: 1.62

B4: Antibody 2E1_GA4 (antibody, V domains shown)
VH: EVQLVESGGGLVQPGGSLRLSCAVSGYSITSGYAWNWIRQAPGKGLEWVAYISYDGNNNYNPSLKNRFTISRDTSKNTFYLQMNSLRAEDTAVYYCAREESTMITTAWFAYWGQGTLVTVSS
VL: DIQMTQSPSSLSASVGDRVTITCVASENIYSNLAWYQQKPGKAPKLLIYGATNLASGVPSRFSGSGSGTDYTLTISSLQPEDFATYYCQHFWDTPYTFGQGTKVEIK
- Bmax [1]: 725000
- Bmax [2]: 1.61

B5: Antibody 2E1_GB7 (antibody, V domains shown)
VH: EVQLVESGGGLVQPGGSLRLSCAVSGYSITSGYYWWWIRQAPGKGLEWVAYISYDGNNNYNPSLKNRFTISRDTSKNTFYLQMNSLRAEDTAVYYCAREESTMITTAWFAYWGQGTLVTVSS
VL: DIQMTQSPSSLSASVGDRVTITCLASENIYSNLAWYQQKPGKAPKLLIYGATNLASGVPSRFSGSGSGTDYTLTISSLQPEDFATYYCQHFWDTPYTFGQGTKVEIK
- Bmax [1]: 636000
- Bmax [2]: 1.48

B6: Antibody 2E1_GB8 (antibody, V domains shown)
VH: EVQLVESGGGLVQPGGSLRLSCAVSGYSITSGYYWWWIRQAPGKGLEWVAYISYDGNNNYNPSLKNRFTISRDTSKNTFYLQMNSLRAEDTAVYYCAREESTMITTAWFAYWGQGTLVTVSS
VL: DIQMTQSPSSLSASVGDRVTITCSASENIYSNLAWYQQKPGKAPKLLIYGATNLASGVPSRFSGSGSGTDYTLTISSLQPEDFATYYCQHFWDTPYTFGQGTKVEIK
- Bmax [1]: 659000
- Bmax [2]: 1.47

B7: Antibody 2E1_GC8 (antibody, V domains shown)
VH: EVQLVESGGGLVQPGGSLRLSCAVSGYSITSGYYWWWIRQAPGKGLEWVAYISYDGNNNYNPSLKNRFTISRDTSKNTFYLQMNSLRAEDTAVYYCAREESTMITTAWFAYWGQGTLVTVSS
VL: DIQMTQSPSSLSASVGDRVTITCRASENIYSNQAWYQQKPGKAPKLLIYGATNRASGVPSRFSGSGSGTDYTLTISSLQPEDFATYYCQHFWDTPYTFGQGTKVEIK
- Bmax [1]: 697000
- Bmax [2]: 1.44

B8: Antibody 2E1_GE6 (antibody, V domains shown)
VH: EVQLVESGGGLVQPGGSLRLSCAVSGYSITSGYYWWWIRQAPGKGLEWVAYISYDGNNNYNPSLKNRFTISRDTSKNTFYLQMNSLRAEDTAVYYCAREESTMITTAWFAYWGQGTLVTVSS
VL: DIQMTQSPSSLSASVGDRVTITCRASENIYSNNAWYQQKPGKAPKLLIYGATYLASGVPSRFSGSGSGTDYTLTISSLQPEDFATYYCQHFWDTPYTFGQGTKVEIK
- Bmax [1]: 665000
- Bmax [2]: 1.65

B9: Antibody 2E1_GF8 (antibody, V domains shown)
VH: EVQLVESGGGLVQPGGSLRLSCAVSGYSITSGYYWWWIRQAPGKGLEWVAYISYDGNNNYNPSLKNRFTISRDTSKNTFYLQMNSLRAEDTAVYYCAREESTMITTAWFAYWGQGTLVTVSS
VL: DIQMTQSPSSLSASVGDRVTITCRGSENIYSNLAWYQQKPGKAPKLLIYGATNLASGVPSRFSGSGSGTDYTLTISSLQPEDFATYYCQHFWDTPYTFGQGTKVEIK
- Bmax [1]: 688000
- Bmax [2]: 1.56

B10: Antibody 2E1_GG1 (antibody, V domains shown)
VH: EVQLVESGGGLVQPGGSLRLSCAVSGYSITSGYAWNWIRQAPGKGLEWVAYISYDGNNNYNPSLKNRFTISRDTSKNTFYLQMNSLRAEDTAVYYCAREESTMITTAWFAYWGQGTLVTVSS
VL: DIQMTQSPSSLSASVGDRVTITCRASENIYSNLAWYQQKPGKAPKLLIYGATNLASGVPSRFSGSGSGTDYTLTISSLQPEDFATYYCQHFWDTPYTFGQGTKVEIK
- Bmax [1]: 688000
- Bmax [2]: 1.56

B11: Antibody 2E1_GH3 (antibody, V domains shown)
VH: EVQLVESGGGLVQPGGSLRLSCAVSGYSITSGYYWNWIRQAPGKGLEWVAYISYDGNNNYNPSLKNRFTISRDTSKNTFYLQMNSLRAEDTAVYYCAREESTMITTAWFAYWGQGTLVTVSS
VL: DIQMTQSPSSLSASVGDRVTITCRASENIYSNLAWYQQKPGKAPKLLIYGATNLSSGVPSRFSGSGSGTDYTLTISSLQPEDFATYYCQHFWDTPYTFGQGTKVEIK
- Bmax [1]: 641000
- Bmax [2]: 1.14

B12: Antibody 2E1_GH4 (antibody, V domains shown)
VH: EVQLVESGGGLVQPGGSLRLSCAVSGYSITSGYYWWWIRQAPGKGLEWVAYISYDGNNNYNPSLKNRFTISRDTSKNTFYLQMNSLRAEDTAVYYCAREESTMITTAWFAYWGQGTLVTVSS
VL: DIQMTQSPSSLSASVGDRVTITCRASENIYSNLAWYQQKPGKAPKLLIYGATNFASGVPSRFSGSGSGTDYTLTISSLQPEDFATYYCQHFWDTPYTFGQGTKVEIK
- Bmax [1]: 646000
- Bmax [2]: 1.51

B13: Antibody 2E1_GH11 (antibody, V domains shown)
VH: EVQLVESGGGLVQPGGSLRLSCAVSGYSITSGYYWWWIRQAPGKGLEWVAYISYDGNNNYNPSLKNRFTISRDTSKNTFYLQMNSLRAEDTAVYYCAREESTMITTAWFAYWGQGTLVTVSS
VL: DIQMTQSPSSLSASVGDRVTITCNASENIYSNLAWYQQKPGKAPKLLIYGATNLASGVPSRFSGSGSGTDYTLTISSLQPEDFATYYCQHFWDTPYTFGQGTKVEIK
- Bmax [1]: 743000
- Bmax [2]: 1.58

B14: chimeric 9B6 (antibody, V domains shown)
VH: DVQLVESGGGLVQPGWSRILSCAASGFTFSNFGMHWVRQAPEKGLEWVAYISSGSGTIYYSDTVRGRFTISRDNPKNTLFLLMTSLRSEDTAMYYCTRSDYDGDWFFDVWGAGTTVTVSS
VL: DIVMTQSHRFLSTSVGDRVTITCKASQDVTTAVAWCQQKPGQSPKLLIYSASFRYTGVPDRFTGSGSGTDFTFTINNVQAEDLALYYCQQHFTTPLTFGAGTKLELK
- IC50 [3]: ~0.833 nM

B15: Antibody 13C4 (antibody, V domains shown)
VH: QIHLVQSGPELKKPGETVKISCKASGYTFTNYGMNWVKQAPGKALKWMGWMNTYIGEPTYADDFKGRFAFSLETSASTAYLQINNLKNEDMATYFCARRGDYASYYFDYWGQGTTLTVSS
VL: DIVLTQSPATLSVTPGDSVSLSCRASQNINNNLHWYHQKSHESPRLLIKYASQSISGIPSRVSGSGSGTDFTLSIVTVETEDFGMFFCQQSNSWPHTFGGGTKLEIR
notes: Mouse hybridoma mAb purified from ascites
- Kd [4]: 11.7 nM
